Residue numbers refer to the chain shown, from its start. In names and notes the source's numbering stands.

Series [1] concerns the target T1, PfTrpA (α-subunit of tryptophan synthase from Pyrococcus furiosus) (Pyrococcus furiosus, UniProt Q8U094 1-248).
T1 construct: Expressed in E. coli; Purified by Q HP HiTrap flow-through, ammonium sulfate precipitation and phenyl Sepharose chromatography; also called P. furiosus TrpA
T1 sequence (looked up): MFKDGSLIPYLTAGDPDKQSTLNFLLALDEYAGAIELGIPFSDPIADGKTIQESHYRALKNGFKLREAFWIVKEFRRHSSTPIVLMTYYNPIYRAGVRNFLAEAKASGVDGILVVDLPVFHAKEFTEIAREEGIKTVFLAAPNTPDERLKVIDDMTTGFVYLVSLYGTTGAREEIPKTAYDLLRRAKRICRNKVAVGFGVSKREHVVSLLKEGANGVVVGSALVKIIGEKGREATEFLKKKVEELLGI
Kind of series: inferred from inhibition of enzyme activity on adding PfTrpA.

The target in series [2] is T2, TmTrpB (wild-type β-subunit of tryptophan synthase from Thermotoga maritima).
T2 chain: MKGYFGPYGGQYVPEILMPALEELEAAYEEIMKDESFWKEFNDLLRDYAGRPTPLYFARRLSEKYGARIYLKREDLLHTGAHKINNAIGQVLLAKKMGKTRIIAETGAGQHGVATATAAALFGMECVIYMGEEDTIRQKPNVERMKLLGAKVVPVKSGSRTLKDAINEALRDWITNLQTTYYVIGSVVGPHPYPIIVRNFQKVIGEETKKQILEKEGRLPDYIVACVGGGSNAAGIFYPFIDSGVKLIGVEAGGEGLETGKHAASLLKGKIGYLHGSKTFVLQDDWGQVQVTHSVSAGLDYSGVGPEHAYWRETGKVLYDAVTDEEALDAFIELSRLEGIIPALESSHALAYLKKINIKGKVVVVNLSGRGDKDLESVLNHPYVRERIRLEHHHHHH

The target of series [3] is T3, PfTrpB^2G9 (PfTrpB T292S).
T3 chain: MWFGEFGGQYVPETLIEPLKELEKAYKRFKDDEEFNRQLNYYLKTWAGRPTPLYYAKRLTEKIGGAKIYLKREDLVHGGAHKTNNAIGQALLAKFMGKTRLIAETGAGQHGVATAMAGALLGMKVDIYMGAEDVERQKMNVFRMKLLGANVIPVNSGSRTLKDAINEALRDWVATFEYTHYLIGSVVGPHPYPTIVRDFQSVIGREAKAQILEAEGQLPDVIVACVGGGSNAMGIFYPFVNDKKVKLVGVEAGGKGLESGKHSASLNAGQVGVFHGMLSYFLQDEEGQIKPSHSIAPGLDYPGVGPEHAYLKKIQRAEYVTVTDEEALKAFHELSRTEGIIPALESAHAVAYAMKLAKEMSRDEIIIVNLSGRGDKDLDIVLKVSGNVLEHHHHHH

Series [4] addresses T4, PfTrpB (wild-type β-subunit of tryptophan synthase from Pyrococcus furiosus).
T4 chain: T3 chain with S292T

Series [5] has as its target T5, PfTrpB^0B2 (PfTrpB P12L, E17G, I68V, T292S, F274S, T321A).
T5 chain: T3 chain with P12L, E17G, I68V, F274S, T321A

Series [6] concerns the target T6, PfTrpB^4D11 (PfTrpB E17G, I68V, T292S, F274S, T321A).
T6 chain: T3 chain with E17G, I68V, F274S, T321A

B1: PfTrpB^0B2 (PfTrpB P12L, E17G, I68V, T292S, F274S, T321A) (enzyme)
chain: T3 chain with P12L, E17G, I68V, F274S, T321A
notes: not shown: C-terminal his-tag from pET22(b)+
Consider B1, for which the binding result in series [1] is reported as “binds”.

B2: TmTrpA (α-subunit of tryptophan synthase from Thermotoga maritima) (protein)
chain: MKGFIAYIPAGFPDLETTRKILIALNELGITGVEIGVPFSDPVADGPVIQLAHSVALRNGVTIKKILEMLSEISVDYDLYLMSYLNPIVNYPEGKEKLLDELKKLGVKGLIIPDLPLREVKNVDIAYPIVPFVAPNTKDEEIDLINSVQAPFVYYISRYGVTGEREDLPFADHIKRVKERIKLPLFVGFGISRHEQVKKVWEIADGVIVGSALVRIMEENPKDEIPRKVVEKVKELLGK
As for B2, the kcat (s^-1) of the TmTrpS complex in series [2] turned out to be 2.2 s⁻¹.

B3: PfTrpA (α-subunit of tryptophan synthase from Pyrococcus furiosus) (protein)
chain: T1 sequence (looked up)
Turning to B3, the kcat change with TrpA came out at 0.34 fold in series [3], 3.2 fold in series [4], 0.04 fold in series [5] and 0.3 fold in series [6]. Further, in series [4], the “increase in catalytic efficiency” value was 12-fold increase in catalytic efficiency.
